What was measured:
[1] = target: Rev (Human immunodeficiency virus 1) (UniProt P04325); assay: fluorescence; conditions: cited from earlier work
[2] = target: the molecule itself; assay: single-molecule TIRF fluorescence microscopy

Q: For DDX1 (from UniProt Q92499), which Kd [1] is on record?
A: 36 nM

B1: HIV-1 Rev (recombinant construct with N-terminal extension, both native cysteines changed to serine, labeled with Alexa-Fluor 555) (natural protein)
chain: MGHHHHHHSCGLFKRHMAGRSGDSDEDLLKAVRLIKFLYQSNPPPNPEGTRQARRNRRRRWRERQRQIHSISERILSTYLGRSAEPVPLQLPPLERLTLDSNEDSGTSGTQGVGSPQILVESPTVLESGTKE
Q: For B1, which Kd [2] is on record?
A: ~1.5 nM

Q: And the “stoichiometry N” value [2]?
A: ≤ 8 Rev monomers on one RRE

Reference: paper PMC3140434 (Journal of molecular biology, 2011)
